Eight molecules from patent US20230357348A1 (AstraZeneca / MedImmune, published 2023) can be followed below.

The target in assay [1] is human GLP-1 receptor (hGLP-1R) (human, UniProt P43220 24-463). Nature of the assay: cell-based or functional assay.
The target of assay [2] is human glucagon receptor (hGCGR) (human, UniProt P47871 26-477). The assay is described as follows: cell-based or functional assay.

Starred links: 1 amine or outer side, 2 acyl side, 3 side chain; linkers in the order of their positions; H or OH if unused. Non-standard residues stand in square brackets, D forms with d. Groups on a side chain read outwards from the residue. No end group written: not given here. *: point of attachment. C20 diacid = O=C(O)CCCCCCCCCCCCCCCCCCC(=O)*; C18 diacid = O=C(O)CCCCCCCCCCCCCCCCC(=O)*; γGlu = O=C(O)[C@H](CCC(=O)[*:2])N[*:1]; αMeF = C[C@](N)(Cc1ccccc1)C(=O)O; AEEA = NCCOCCOCC(=O)O; Aib = CC(C)(N)C(=O)O

Chain of human glucagon receptor (hGCGR) (P47871 26-477): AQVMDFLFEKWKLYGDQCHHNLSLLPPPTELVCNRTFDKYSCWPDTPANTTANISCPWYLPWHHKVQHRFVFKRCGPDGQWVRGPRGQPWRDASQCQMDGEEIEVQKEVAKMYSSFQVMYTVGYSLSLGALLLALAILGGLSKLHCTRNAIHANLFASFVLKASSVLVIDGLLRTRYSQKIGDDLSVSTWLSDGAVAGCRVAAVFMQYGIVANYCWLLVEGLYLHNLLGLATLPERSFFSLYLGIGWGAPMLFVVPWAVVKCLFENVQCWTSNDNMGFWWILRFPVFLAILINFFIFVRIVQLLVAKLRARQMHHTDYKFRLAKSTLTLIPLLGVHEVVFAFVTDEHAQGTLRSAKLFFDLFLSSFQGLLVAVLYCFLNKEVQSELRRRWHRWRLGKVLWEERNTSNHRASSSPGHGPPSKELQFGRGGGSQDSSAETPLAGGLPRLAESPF

B1: Peptide 3 (peptide)
peptide: HSQGS[αMeF]TSDVSK[αMeF]LDSK([γGlu-C18 diacid])AAQDFVQWIANT-NH2
modifications: N-terminus assumed
SMILES: CC[C@H](C)[C@H](NC(=O)[C@H](Cc1c[nH]c2ccccc12)NC(=O)[C@H](CCC(N)=O)NC(=O)[C@@H](NC(=O)[C@H](Cc1ccccc1)NC(=O)[C@H](CC(=O)O)NC(=O)[C@H](CCC(N)=O)NC(=O)[C@H](C)NC(=O)[C@H](C)NC(=O)[C@H](CCCCNC(=O)CC[C@H](NC(=O)CCCCCCCCCCCCCCCCC(=O)O)C(=O)O)NC(=O)[C@H](CO)NC(=O)[C@H](CC(=O)O)NC(=O)[C@H](CC(C)C)NC(=O)[C@](C)(Cc1ccccc1)NC(=O)[C@H](CCCCN)NC(=O)[C@H](CO)NC(=O)[C@@H](NC(=O)[C@H](CC(=O)O)NC(=O)[C@H](CO)NC(=O)[C@@H](NC(=O)[C@](C)(Cc1ccccc1)NC(=O)[C@H](CO)NC(=O)CNC(=O)[C@H](CCC(N)=O)NC(=O)[C@H](CO)NC(=O)[C@@H](N)Cc1c[nH]cn1)[C@@H](C)O)C(C)C)C(C)C)C(=O)N[C@@H](C)C(=O)N[C@@H](CC(N)=O)C(=O)N[C@H](C(N)=O)[C@@H](C)O
As to B1, in assay [1], the “hGLP-1R EC50 (pM)” value is 69 pM. For the same molecule, the “hGluc-R EC50 (pM)” value in assay [2] was 149 pM.

In the case of H[Aib]QGTFTSDVSK[αMeF]LDSK([γGlu-γGlu-AEEA-AEEA-γGlu-γGlu-C20 diacid])RAQDFVRWLLE[Aib]G-OH [Peptide 139], the “hGLP-1R EC50 (pM)” value in assay [1] worked out at 630 pM. Further, the “hGluc-R EC50 (pM)” value in assay [2] came to 984 pM.

B2: Peptide 142 (peptide)
peptide: H[Aib]QGTFTSDVSK[αMeF]LDSK([AEEA-AEEA-γGlu-C18 diacid])RARDFVAWLLE[Aib]G-OH
modifications: N-terminus assumed
SMILES: CC(C)C[C@H](NC(=O)[C@H](Cc1c[nH]c2ccccc12)NC(=O)[C@H](C)NC(=O)[C@@H](NC(=O)[C@H](Cc1ccccc1)NC(=O)[C@H](CC(=O)O)NC(=O)[C@H](CCCNC(=N)N)NC(=O)[C@H](C)NC(=O)[C@H](CCCNC(=N)N)NC(=O)[C@H](CCCCNC(=O)COCCOCCNC(=O)COCCOCCNC(=O)CC[C@H](NC(=O)CCCCCCCCCCCCCCCCC(=O)O)C(=O)O)NC(=O)[C@H](CO)NC(=O)[C@H](CC(=O)O)NC(=O)[C@H](CC(C)C)NC(=O)[C@](C)(Cc1ccccc1)NC(=O)[C@H](CCCCN)NC(=O)[C@H](CO)NC(=O)[C@@H](NC(=O)[C@H](CC(=O)O)NC(=O)[C@H](CO)NC(=O)[C@@H](NC(=O)[C@H](Cc1ccccc1)NC(=O)[C@@H](NC(=O)CNC(=O)[C@H](CCC(N)=O)NC(=O)C(C)(C)NC(=O)[C@@H](N)Cc1c[nH]cn1)[C@@H](C)O)[C@@H](C)O)C(C)C)C(C)C)C(=O)N[C@@H](CC(C)C)C(=O)N[C@@H](CCC(=O)O)C(=O)NC(C)(C)C(=O)NCC(=O)O
With B2, the “hGLP-1R EC50 (pM)” value in assay [1] came out at 59.4 pM. In addition, the “hGluc-R EC50 (pM)” value in assay [2] was determined as 108 pM.

B3: Peptide 143 (peptide)
peptide: H[Aib]QGTFTSDVSK[αMeF]LDSK([AEEA-AEEA-γGlu-C18 diacid])RARDFVQWLLE[Aib]G-OH
modifications: N-terminus assumed
SMILES: CC(C)C[C@H](NC(=O)[C@H](Cc1c[nH]c2ccccc12)NC(=O)[C@H](CCC(N)=O)NC(=O)[C@@H](NC(=O)[C@H](Cc1ccccc1)NC(=O)[C@H](CC(=O)O)NC(=O)[C@H](CCCNC(=N)N)NC(=O)[C@H](C)NC(=O)[C@H](CCCNC(=N)N)NC(=O)[C@H](CCCCNC(=O)COCCOCCNC(=O)COCCOCCNC(=O)CC[C@H](NC(=O)CCCCCCCCCCCCCCCCC(=O)O)C(=O)O)NC(=O)[C@H](CO)NC(=O)[C@H](CC(=O)O)NC(=O)[C@H](CC(C)C)NC(=O)[C@](C)(Cc1ccccc1)NC(=O)[C@H](CCCCN)NC(=O)[C@H](CO)NC(=O)[C@@H](NC(=O)[C@H](CC(=O)O)NC(=O)[C@H](CO)NC(=O)[C@@H](NC(=O)[C@H](Cc1ccccc1)NC(=O)[C@@H](NC(=O)CNC(=O)[C@H](CCC(N)=O)NC(=O)C(C)(C)NC(=O)[C@@H](N)Cc1c[nH]cn1)[C@@H](C)O)[C@@H](C)O)C(C)C)C(C)C)C(=O)N[C@@H](CC(C)C)C(=O)N[C@@H](CCC(=O)O)C(=O)NC(C)(C)C(=O)NCC(=O)O
As for B3, in assay [1], the “hGLP-1R EC50 (pM)” value was found to be 19.1 pM. In addition, the “hGluc-R EC50 (pM)” value in assay [2] came out at 32.6 pM.

B4: Peptide 141 (peptide)
peptide: H[Aib]QGTFTSDVSK[αMeF]LDSK([AEEA-AEEA-γGlu-C18 diacid])RAQDFVAWLLE[Aib]G-OH
modifications: N-terminus assumed
SMILES: CC(C)C[C@H](NC(=O)[C@H](Cc1c[nH]c2ccccc12)NC(=O)[C@H](C)NC(=O)[C@@H](NC(=O)[C@H](Cc1ccccc1)NC(=O)[C@H](CC(=O)O)NC(=O)[C@H](CCC(N)=O)NC(=O)[C@H](C)NC(=O)[C@H](CCCNC(=N)N)NC(=O)[C@H](CCCCNC(=O)COCCOCCNC(=O)COCCOCCNC(=O)CC[C@H](NC(=O)CCCCCCCCCCCCCCCCC(=O)O)C(=O)O)NC(=O)[C@H](CO)NC(=O)[C@H](CC(=O)O)NC(=O)[C@H](CC(C)C)NC(=O)[C@](C)(Cc1ccccc1)NC(=O)[C@H](CCCCN)NC(=O)[C@H](CO)NC(=O)[C@@H](NC(=O)[C@H](CC(=O)O)NC(=O)[C@H](CO)NC(=O)[C@@H](NC(=O)[C@H](Cc1ccccc1)NC(=O)[C@@H](NC(=O)CNC(=O)[C@H](CCC(N)=O)NC(=O)C(C)(C)NC(=O)[C@@H](N)Cc1c[nH]cn1)[C@@H](C)O)[C@@H](C)O)C(C)C)C(C)C)C(=O)N[C@@H](CC(C)C)C(=O)N[C@@H](CCC(=O)O)C(=O)NC(C)(C)C(=O)NCC(=O)O
B4: the “hGLP-1R EC50 (pM)” value in assay [1] was determined as 264 pM. Further, the “hGluc-R EC50 (pM)” value in assay [2] is 392 pM.

B5: Peptide 136 (peptide)
peptide: H[Aib]QGTFTSDVSK[αMeF]LDSK([γGlu-γGlu-AEEA-AEEA-γGlu-γGlu-C18 diacid])RARDFVRWLLE[Aib]G-OH
modifications: N-terminus assumed
SMILES: CC(C)C[C@H](NC(=O)[C@H](Cc1c[nH]c2ccccc12)NC(=O)[C@H](CCCNC(=N)N)NC(=O)[C@@H](NC(=O)[C@H](Cc1ccccc1)NC(=O)[C@H](CC(=O)O)NC(=O)[C@H](CCCNC(=N)N)NC(=O)[C@H](C)NC(=O)[C@H](CCCNC(=N)N)NC(=O)[C@H](CCCCNC(=O)CC[C@H](NC(=O)CC[C@H](NC(=O)COCCOCCNC(=O)COCCOCCNC(=O)CC[C@H](NC(=O)CC[C@H](NC(=O)CCCCCCCCCCCCCCCCC(=O)O)C(=O)O)C(=O)O)C(=O)O)C(=O)O)NC(=O)[C@H](CO)NC(=O)[C@H](CC(=O)O)NC(=O)[C@H](CC(C)C)NC(=O)[C@](C)(Cc1ccccc1)NC(=O)[C@H](CCCCN)NC(=O)[C@H](CO)NC(=O)[C@@H](NC(=O)[C@H](CC(=O)O)NC(=O)[C@H](CO)NC(=O)[C@@H](NC(=O)[C@H](Cc1ccccc1)NC(=O)[C@@H](NC(=O)CNC(=O)[C@H](CCC(N)=O)NC(=O)C(C)(C)NC(=O)[C@@H](N)Cc1c[nH]cn1)[C@@H](C)O)[C@@H](C)O)C(C)C)C(C)C)C(=O)N[C@@H](CC(C)C)C(=O)N[C@@H](CCC(=O)O)C(=O)NC(C)(C)C(=O)NCC(=O)O
As for B5, the “hGLP-1R EC50 (pM)” value in assay [1] was determined as 45.2 pM. Further, the “hGluc-R EC50 (pM)” value in assay [2] turned out to be 509 pM.

B6: Peptide 138 (peptide)
peptide: H[Aib]QGTFTSDVSK[αMeF]LDSK([γGlu-γGlu-AEEA-AEEA-γGlu-γGlu-C18 diacid])RAQDFVRWLLE[Aib]G-OH
modifications: N-terminus assumed
SMILES: CC(C)C[C@H](NC(=O)[C@H](Cc1c[nH]c2ccccc12)NC(=O)[C@H](CCCNC(=N)N)NC(=O)[C@@H](NC(=O)[C@H](Cc1ccccc1)NC(=O)[C@H](CC(=O)O)NC(=O)[C@H](CCC(N)=O)NC(=O)[C@H](C)NC(=O)[C@H](CCCNC(=N)N)NC(=O)[C@H](CCCCNC(=O)CC[C@H](NC(=O)CC[C@H](NC(=O)COCCOCCNC(=O)COCCOCCNC(=O)CC[C@H](NC(=O)CC[C@H](NC(=O)CCCCCCCCCCCCCCCCC(=O)O)C(=O)O)C(=O)O)C(=O)O)C(=O)O)NC(=O)[C@H](CO)NC(=O)[C@H](CC(=O)O)NC(=O)[C@H](CC(C)C)NC(=O)[C@](C)(Cc1ccccc1)NC(=O)[C@H](CCCCN)NC(=O)[C@H](CO)NC(=O)[C@@H](NC(=O)[C@H](CC(=O)O)NC(=O)[C@H](CO)NC(=O)[C@@H](NC(=O)[C@H](Cc1ccccc1)NC(=O)[C@@H](NC(=O)CNC(=O)[C@H](CCC(N)=O)NC(=O)C(C)(C)NC(=O)[C@@H](N)Cc1c[nH]cn1)[C@@H](C)O)[C@@H](C)O)C(C)C)C(C)C)C(=O)N[C@@H](CC(C)C)C(=O)N[C@@H](CCC(=O)O)C(=O)NC(C)(C)C(=O)NCC(=O)O
Take B6: the “hGLP-1R EC50 (pM)” value in assay [1] amounted to 104 pM. Further, the “hGluc-R EC50 (pM)” value in assay [2] is 184 pM.

B7: Peptide 137 (peptide)
peptide: H[Aib]QGTFTSDVSK[αMeF]LDSK([γGlu-γGlu-AEEA-AEEA-γGlu-γGlu-C18 diacid])RAQDFVRWLLEG[Aib]-OH
modifications: N-terminus assumed
SMILES: CC(C)C[C@H](NC(=O)[C@H](CC(C)C)NC(=O)[C@H](Cc1c[nH]c2ccccc12)NC(=O)[C@H](CCCNC(=N)N)NC(=O)[C@@H](NC(=O)[C@H](Cc1ccccc1)NC(=O)[C@H](CC(=O)O)NC(=O)[C@H](CCC(N)=O)NC(=O)[C@H](C)NC(=O)[C@H](CCCNC(=N)N)NC(=O)[C@H](CCCCNC(=O)CC[C@H](NC(=O)CC[C@H](NC(=O)COCCOCCNC(=O)COCCOCCNC(=O)CC[C@H](NC(=O)CC[C@H](NC(=O)CCCCCCCCCCCCCCCCC(=O)O)C(=O)O)C(=O)O)C(=O)O)C(=O)O)NC(=O)[C@H](CO)NC(=O)[C@H](CC(=O)O)NC(=O)[C@H](CC(C)C)NC(=O)[C@](C)(Cc1ccccc1)NC(=O)[C@H](CCCCN)NC(=O)[C@H](CO)NC(=O)[C@@H](NC(=O)[C@H](CC(=O)O)NC(=O)[C@H](CO)NC(=O)[C@@H](NC(=O)[C@H](Cc1ccccc1)NC(=O)[C@@H](NC(=O)CNC(=O)[C@H](CCC(N)=O)NC(=O)C(C)(C)NC(=O)[C@@H](N)Cc1c[nH]cn1)[C@@H](C)O)[C@@H](C)O)C(C)C)C(C)C)C(=O)N[C@@H](CCC(=O)O)C(=O)NCC(=O)NC(C)(C)C(=O)O
In the case of B7, the “hGLP-1R EC50 (pM)” value in assay [1] is 143 pM. For the same molecule, the “hGluc-R EC50 (pM)” value in assay [2] was 268 pM.
